Experimental data taken from the supplement of paper PMC10567573.

B1: LCOR (parent)
chain: PCAGSTSLSHSPGCSSTQGNGRPG

Variants of: B1
Test: protein stability index of a GFP-peptide fusion (GPS, HEK-293T) (PSI 1-6); higher = more stable
Conditions: c terminus: a fixed tail appended
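Further: lentivirally expressed fusions sorted by FACS into six bins by GFP to DsRed ratio, PSI derived from sequencing read proportions per bin multiplied by bin number.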

| Variant | protein stability index |
| --- | --- |
| PCAGSTSLSHSPGYSSTQGNGRPG [C14Y] | 3.83 |
| PCAGSTSLSHSPGLSSTQGNGRPG [C14L] | 4.34 |
| PCAGSTSLSHSPGPSSTQGNGRPG [C14P] | 4.48 |
| PCAGSTSLSHSPGGSSTQGNGRPG [C14G] | 5.25 |
| PCAGSTSLSHSPGMSSTQGNGRPG [C14M] | 4.53 |
| PCAGSTSLSHSPGRSSTQGNGRPG [C14R] | 3.86 |
| PCAGSTSLSHSPGSSSTQGNGRPG [C14S] | 5.88 |
| PCAGSTSLSHSPGASSTQGNGRPG [C14A] | 4.12 |
| PCAGSTSLSHSPGVSSTQGNGRPG [C14V] | 4.85 |
| PCAGSTSLSHSPGQSSTQGNGRPG [C14Q] | 5.14 |
| PCAGSTSLSHSPGTSSTQGNGRPG [C14T] | 4.93 |
| PCAGSTSLSHSPGESSTQGNGRPG [C14E] | 4.9 |
| PCAGSTSLSHSPGHSSTQGNGRPG [C14H] | 4.93 |
| PCAGSTSLSHSPGFSSTQGNGRPG [C14F] | 4.71 |
| PCAGSTSLSHSPGKSSTQGNGRPG [C14K] | 5.01 |
| PCAGSTSLSHSPGCSKTQGNGRPG [S16K] | 3.37 |
| PCAGSTSLSHSPGCSYTQGNGRPG [S16Y] | 2.02 |
| PCAGSTSLSHSPGCSHTQGNGRPG [S16H] | 2.21 |
| PCAGSTSLSHSPGCSATQGNGRPG [S16A] | 3 |
| PCAGSTSLSHSPGCSQTQGNGRPG [S16Q] | 3.03 |
| PCAGSTSLSHSPGCSNTQGNGRPG [S16N] | 3.53 |
| PCAGSTSLSHSPGCSRTQGNGRPG [S16R] | 4.34 |
| PCAGSTSLSHSPGCSITQGNGRPG [S16I] | 2.07 |
| PCAGSTSLSHSPGCSLTQGNGRPG [S16L] | 1.6 |

| Variant | protein stability index |
| --- | --- |
| PCAGSTSLSHSPGCSFTQGNGRPG [S16F] | 2.87 |
| PCAGSTSLSHSPGCSETQGNGRPG [S16E] | 3.18 |
| PCAGSTSLSHSPGCSGTQGNGRPG [S16G] | 3.74 |
| PCAGSTSLSHSPGCSDTQGNGRPG [S16D] | 4.05 |
| PCAGSTSLSHSPGCSPTQGNGRPG [S16P] | 4.1 |
| PCAGSTSLSHSPGCSMTQGNGRPG [S16M] | 2.22 |
| PCAGSTSLSHSMGCSSTQGNGRPG [P12M] | 3.12 |
| PCAGSTSLSHSVGCSSTQGNGRPG [P12V] | 3.15 |
| PCAGSTSLSHSNGCSSTQGNGRPG [P12N] | 4.11 |
| PCAGSTSLSHSLGCSSTQGNGRPG [P12L] | 3.23 |
| PCAGSTSLSHSKGCSSTQGNGRPG [P12K] | 3.86 |
| PCAGSTSLSHSHGCSSTQGNGRPG [P12H] | 3.9 |
| PCAGSTSLSHSIGCSSTQGNGRPG [P12I] | 2.73 |
| PCAGSTSLSHSSGCSSTQGNGRPG [P12S] | 3.55 |
| PCAGSTSLSHSTGCSSTQGNGRPG [P12T] | 4.1 |
| PCAGSTSLSHSYGCSSTQGNGRPG [P12Y] | 3.39 |
| PCAGSTSLSHSQGCSSTQGNGRPG [P12Q] | 3.02 |
| PCAGSTSLSHSRGCSSTQGNGRPG [P12R] | 2.92 |
| PCAGSTSLSHSPGCSSTQGNGRMG [P23M] | 2.98 |
| PCAGSTSLSHSPGCSSTQGNGRWG [P23W] | 2.44 |
| PCAGSTSLSHSPGCSSTQGNGRTG [P23T] | 3.34 |
| PCAGSTSLSHSPGCSSTQGNGRHG [P23H] | 3.88 |
| PCAGSTSLSHSPGCSSTQGNGRKG [P23K] | 3.78 |
| PCAGSTSLSHSPGCSSTQGNGRAG [P23A] | 3.78 |

| Variant | protein stability index |
| --- | --- |
| PCAGSTSLSHSPGCSSTQGNGRSG [P23S] | 3.44 |
| PCAGSTSLSHSPGCSSTQGNGRLG [P23L] | 3.24 |
| PCAGSTSLSHSPGCSSTQGNGREG [P23E] | 3.39 |
| PCAGSTSLSHSPGCSSTQGNGRYG [P23Y] | 2.75 |
| PCAGSTSLSHSPGCSSTQGNGRVG [P23V] | 3.39 |
| PCAGSTSLSHSPGCSSTQGNGRNG [P23N] | 3.79 |
| PCAGSTSLSHSPGCSSTQGNGRFG [P23F] | 2.46 |
| PCAGSTSLSHSPGCSSTQGNGRQG [P23Q] | 2.03 |
| PCAGSTSLSHSPGCSSTQGNGRRG [P23R] | 3.22 |
| PCAGSTSLSHSPGCSSTQGNGRIG [P23I] | 3.02 |
| PCAGSTSLSHSPGCSSTQGNGRDG [P23D] | 4.15 |
| PCAGSTSLSHSPGCSSTQGNGRCG [P23C] | 3.45 |
| PCAGSTSLSHSPGCSSIQGNGRPG [T17I] | 2.02 |
| PCAGSTSLSHSPGCSSNQGNGRPG [T17N] | 2.29 |
| PCAGSTSLSHSPGCSSHQGNGRPG [T17H] | 3.36 |
| PCAGSTSLSHSPGCSSSQGNGRPG [T17S] | 2.53 |
| PCAGSTSLSHSPGCSSAQGNGRPG [T17A] | 3.08 |
| PCAGSTSLSHSPGCSSYQGNGRPG [T17Y] | 2.28 |
| PCAGSTSLSHSPGCSSCQGNGRPG [T17C] | 1.47 |
| PCAGSTSLSHSPGCSSFQGNGRPG [T17F] | 1.81 |
| PCAGSTSLSHSPGCSSWQGNGRPG [T17W] | 1.89 |
| PCAGSTSLSHSPGCSSPQGNGRPG [T17P] | 3.51 |
| PCAGSTSLSHSPGCSSEQGNGRPG [T17E] | 3.47 |
| PCAGSTSLSHSPGCSSVQGNGRPG [T17V] | 1.75 |

| Variant | protein stability index |
| --- | --- |
| PCAGSTSLSHSPGCSSMQGNGRPG [T17M] | 2.17 |
| PCAGSTSLSHSPGCSSKQGNGRPG [T17K] | 3.44 |
| PCAGSTSLSHSPGCSSTIGNGRPG [Q18I] | 2.48 |
| PCAGSTSLSHSPGCSSTEGNGRPG [Q18E] | 3.34 |
| PCAGSTSLSHSPGCSSTRGNGRPG [Q18R] | 3.01 |
| PCAGSTSLSHSPGCSSTNGNGRPG [Q18N] | 3.51 |
| PCAGSTSLSHSPGCSSTSGNGRPG [Q18S] | 3.55 |
| PCAGSTSLSHSPGCSSTMGNGRPG [Q18M] | 3.01 |
| PCAGSTSLSHSPGCSSTKGNGRPG [Q18K] | 3.77 |
| PCAGSTSLSHSPGCSSTDGNGRPG [Q18D] | 2.98 |
| PCAGSTSLSHSPGCSSTCGNGRPG [Q18C] | 2.73 |
| PCAGSTSLSHSPGCSSTTGNGRPG [Q18T] | 3.37 |
| PCAGSTSLSHSPGCSSTYGNGRPG [Q18Y] | 2.75 |
| PCAGSTSLSHSPGCSSTPGNGRPG [Q18P] | 2.89 |
| PCAGSTSLSHSPGCSSTGGNGRPG [Q18G] | 3.53 |
| PCAGSTSLSHSPGCSSTVGNGRPG [Q18V] | 2.5 |
| PCAGSTSLSHSPGCSSTFGNGRPG [Q18F] | 2.27 |
| PCAGSTSLSHSPHCSSTQGNGRPG [G13H] | 3.46 |
| PCAGSTSLSHSPRCSSTQGNGRPG [G13R] | 3.6 |
| PCAGSTSLSHSPQCSSTQGNGRPG [G13Q] | 2.56 |
| PCAGSTSLSHSPMCSSTQGNGRPG [G13M] | 2.56 |
| PCAGSTSLSHSPTCSSTQGNGRPG [G13T] | 2.72 |
